What was measured:
Tie2 receptor [1] = test: Tie2 phosphorylation in HUVEC cells (immunoprecipitation/immunoblot); assay type: cell-based, human
Procedure: As Ang2 induces a change in vascular endothelial cells by binding to a Tie-2 receptor expressed in the vascular endothelial cells to induce the phosphorylation of the receptor and activate it, a test for analyzing an influence of the anti-Ang2 antibody on Tie2 phosphorylation was conducted using a cell-based assay.
For this, HUVEC (ATCC) cells (1×10^6) were cultured in a 100 mm culture dish using EGM-2 (Lonza) media at 37° C. and when they reached 80˜90% confluency, the media were replaced with serum-free media and cultured at 37° C. for 6 to 16 hours. The dish was washed once with PBS and after the replacement with […] sodium orthovanadate (Sigma)-mixed serum free media (Lonza), they were further cultured for 10 min. […]
In addition, referring to the above method, when 60 nM of antibody 10D6 and Ang2 were treated, the phosphorylation level of Tie2 was measured and compared with the case of treating a control antibody (anti-Ang2 antibody (Regeneron) which has MOA of inhibiting binding between Ang2 and Tie2; represented as ‘RG antibody’). After treating with the antibody (10D6 or RG), the blot band density of pTyr and Tie2 was measured using ImageJ software and pTyr/Tie2 ratio was calculated.

Tie2 receptor [2] = test: Tie2, Akt and 42/44 phosphorylation in HUVEC: antibody 10D6 versus 10D6 Fab; assay type: cell-based, human; details: 60 nM 10D6 antibody or 10D6 Fab with 40 nM Ang2
Procedure: To see whether the activation of a Tie2 receptor is resulted from the dimerization of antibody 10D6, Fab fragments of antibody 10D6 were purified and then used for this experiment. The Fab fragments were obtained from antibody 10D6 using an Fab Preparation Kit (Pierce). As a digestion buffer, PBS containing 20 mM EDTA and 20 mM L-Cysteine was used, and the antibody was separated into Fab and Fc by the treatment with an immobilized papain at a room temperature for 2 hours. The Fc fragments were removed from the reaction solution using MabSelectSuRe column (GE Healthcare) to isolate and purify pure Fab fragments only.
HUVEC (ATCC) cells (1×10^6) were cultured in a 100 mm culture dish using EGM-2 (Lonza) media at 37° C. and when they reached 80˜90% confluency, the media were replaced with serum-free media (Lonza) and cultured at 37° C. for 6 to 16 hours. The dish was washed once with PBS and after the replacement with […] sodium orthovanadate (Sigma)-mixed serum free media (Lonza), they were further cultured for 10 min. After washed once with PBS, the cultured cells were treated with a mixture prepared by mixing 60 nM of 10D6 Ang2 antibody or 10D6 Fab with 40 nM of Ang2 protein (R&D systems) and letting them stand for 20 min. and further cultured for 10 min. […]

tumor blood vessels = test: Lectin perfusion assay in LLC tumors; assay type: in vivo, mouse; details: 10 mg/kg i.p., five administrations, compared to Fc- or 4H10-treated group
Procedure: To see the functions of tumor blood vessels treated with antibody 10D6, perfusion level of the blood vessel was examined by Lectin perfusion assay. Referring to the method described in Example 14, LLC tumor cells were subcutaneously injected into mice. When the size of tumors reached 50˜100 mm^3, anti-Ang2 antibody 10D6 was injected at the concentration of 10 mg/kg via an intraperitoneal injection three times a week and the size of the tumors was measured. For comparison, the same experiment was performed to a control group treated with Fc of IgG1 and a comparative group treated with antibody 4H10 (refer to Example 3).
After administering the antibody five-times, the mice were injected with FITC-Lectin (Vector laboratory) via tail vein, and after 20 minutes, subjected to perfusion fixation. Tumor frozen sections were obtained and immunostained using hamster anti-CD31 antibody (1:200, Millipore). Images were obtained using LSM5 confocal microscope (Zeiss), and Lectin+ area/CD31+ area was quantified using ImageJ software (http://rsb.info.nih.gov/ij).

[3] = tested on: human colorectal cancer cell line Colo205; test: Colo205 colorectal cancer xenograft tumor growth; assay type: in vivo, mouse; details: BALB/c nude mice; 10 mg/kg intraperitoneal twice a week
Procedure: To see the tumor growth inhibitory effects of Ang2 antibody, a colorectal cancer xenograft model using a human colorectal cancer cell line Colo205 (ATCC) was employed.
The Colo205 cell line was cultured using 10% FBS (Gibco)-supplemented RPMI-1640 (Gibco) media. 5×10^5 of Colo205 cell line were re-suspended in 100 ul of serum-free media and then subcutaneously injected into anesthetic 4˜5-week-old BALB/c nude mice (Shanghai SLAC Laboratory Animal Co. Ltd.) anesthetized with 1-2% isoflurane. When the size of tumors reached 100˜200 mm^3, anti-Ang2 antibody (10D6) was injected at the concentration of 10 mg/kg via an intraperitoneal injection twice a week and the size of the tumors was measured.
The size of tumor (V) was calculated using the following formula: V=(length×width^2)/2

B1: 10D6: mouse anti-Ang2 monoclonal antibody from hybridoma KCLRF-BP-00295; heavy chain variable region SEQ ID NO: 7, light chain variable region SEQ ID NO: 9 (antibody, V domains shown)
VH: DVQLQESGPGLVKPSQSLSLTCTVTGYSITSDYAWNWIRQFPGNKLEWMGYINYSGNTDYNPSLKSRSSITRDTSKNQFFLQLNSVTTGDTATYYCARGNFEGAMDYWGQGTSVTVSS
VL: SIVMTQTPKFLLVSAGDRVTITCKASQSVSNDVAWYQQKPGQSPKLLIYYASNRYPGVPDRFTGSGYGTDFTFTISTVQAEDLAVYFCQQDYSSPWTFGGGTKLEIK
modifications: Synthetic (Heavy chain variable region of an anti-Ang2 antibody); Synthetic (Light chain variable region of anti-Ang2 antibody)
- Tie2 phosphorylation effect, fold higher than control antibody RG (Tie2 receptor [1]; 60 nM antibody and Ang2): about 8.6 fold
- phosphorylation of Tie2 compared to Ang2 treated alone (Tie2 receptor [1]; antibody 600~0.06 nM with 40 nM Ang2, every antibody concentration tested): more strongly induced
- phosphorylation of Tie2, Akt and 42/44 (Tie2 receptor [2]): occurred
- percentage of Lectin+ area in CD31+ area (tumor blood vessels): increased
- perfusion function of tumor blood vessels (tumor blood vessels): enhanced
- tumor growth in Colo205 xenograft [3]: inhibited the growth of colorectal cancer
